This is an account of results in article PMC8930772, “Seipin forms a flexible cage at lipid droplet formation sites” (Nature Structural & Molecular Biology, 2022).

Data set [1] concerns the molecule itself. Briefly: negative-stain EM; WT lumenal domain oligomers from the SEC, 2D class averages.
Data set [2] concerns the molecule itself. As to the kind of experiment: cryo-EM structure; purified Sei1-Ldb16 complex reconstituted in amphipol PmalC8, about 3.5 mg/ml; negative stain and cryo-EM; C10 then C5 symmetry.

B1: seipin lumenal domain WT(47-235) with C-terminal 6xHis (domain or fragment, S. cerevisiae, UniProt Q06058 47-235, looked up)
chain: ADSSNVVPLNTFNILNGVQFGTKFFQSIKSIPVGTDLPQTIDNGLSQLIPMRDNMEYKLDLNLQLYCQSKTDHLNLDNLLIDVYRGPGPLLGAPGGSNSKDEKIFHTSRPIVCLALTDSMSPQEIEQLGPSRLDVYDEEWLNTIRIEDKISLESSYETISVFLKTEIAQRNLIIHPESGIKFRMNFEQG
notes: seipin Sei1, S. cerevisiae, lumenal domain lacking the TM segments, residues 47-235; also called WT lumenal domain; source: E. coli SHuffle T7 Express, purified (Ni-NTA), isolated in the absence of detergent; copies: 10
The term stoichiometry N denotes a count of units in the complex or per binding partner. Regarding B1, the “stoichiometry N” value in data set [1] was 10.

B2: yeast seipin Sei1 with C-terminal 3xFLAG-TEV-2xProteinA tag, purified from strain HAY60 (natural protein, S. cerevisiae, UniProt Q06058 1-285, looked up)
chain: MKINVSRPLQFLQWSSYIVVAFLIQLLIILPLSILIYHDFYLRLLPADSSNVVPLNTFNILNGVQFGTKFFQSIKSIPVGTDLPQTIDNGLSQLIPMRDNMEYKLDLNLQLYCQSKTDHLNLDNLLIDVYRGPGPLLGAPGGSNSKDEKIFHTSRPIVCLALTDSMSPQEIEQLGPSRLDVYDEEWLNTIRIEDKISLESSYETISVFLKTEIAQRNLIIHPESGIKFRMNFEQGLRNLMLRKRFLSYIIGISIFHCIICVLFFITGCTAFIFVRKGQEKSKKHS
notes: seipin Sei1 (Fld1), S. cerevisiae; tagged at the endogenous locus; The 2xProteinA part held the protein on IgG Sepharose and was cut off with TEV protease before SEC and cryo-EM; The deposited model holds residues 17-264 without 134-147; also called Fld1; source: S. cerevisiae strain HAY60, overproduced from the GAL1 promoter at the endogenous locus; purified (IgG Sepharose, TEV cleavage, …)
Take B2: in data set [2], the “stoichiometry N” value worked out at 10.
